Positions count from the first letter of the chain named.
T1: recombinant, soluble human ASGR-1 (human, UniProt P07306 62-291)
T1 construct: biotinylated in the binning assay; also called soluble huASGR-1; Soluble ASGR-1 (Amgen)
T1 sequence: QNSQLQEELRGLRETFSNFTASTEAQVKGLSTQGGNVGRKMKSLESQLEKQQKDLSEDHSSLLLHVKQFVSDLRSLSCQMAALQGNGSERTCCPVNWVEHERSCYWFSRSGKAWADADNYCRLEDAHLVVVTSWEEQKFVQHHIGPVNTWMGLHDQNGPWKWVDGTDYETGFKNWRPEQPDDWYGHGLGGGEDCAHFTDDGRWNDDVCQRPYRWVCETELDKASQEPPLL

B1: 58G11 (antibody, V domains shown)
VH: EVQLVESGGGLVQPGGSLRLSCAASGFTFSSYSMNWVRQAPGKGLEWISYISTSSSTIFYADSVKGRFTISRDSAKNSLYLQMNSLRDEDTAVYYCARGDTAMVLYYYGMDVWGQGTTVTVSS
VL: SYELTQPPSVSVSPGQTASITCSGDKLGDKYASWYQQKPGQSPVLVIYQDNKRPSGIPERFSGSNSGNTATLTISGTQAMDEADYYCQAWNNNTVMFGGGTKLTVL
notes: hybridoma mAb
B2: 32D6 (antibody, V domains shown)
VH: QVQLVESGGGVVQPGRSLRLSCAASGFTFSSYGMHWVRQAPGKGLEWVTVIWHDGSNAYYADSVKGRFTISRDNSKNTLYLQMNSLRAEDTAVYYCARENSSSYYFDYWGQGTLVTVSS
VL: DIQMTQSPSSLSTSVGDRVTITCRASQNIISYLNWYQQKPGKAPKLLMYVASRLQSGVPSRFSGSGSGTDFTLTISSLQAEDFATYYCQQSYSTPYTFGGGTKVAIK
notes: hybridoma mAb
B3: 175D10 (antibody, V domains shown)
VH: QVQLVQSGAEVKKPGASVKVSCKASGYTFTNYDLNWVRQATGQGLEWMGWMHPNSGNTGYAQKFQGRVTMTRNTSISTVYMELSSLRSEDTAVYYCAYSSGWYYFDYWGQGTLVTVSS
VL: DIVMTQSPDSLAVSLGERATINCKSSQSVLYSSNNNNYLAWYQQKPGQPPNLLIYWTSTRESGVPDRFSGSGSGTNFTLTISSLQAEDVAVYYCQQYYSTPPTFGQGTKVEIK
notes: hybridoma mAb
B4: 26C4 (antibody, V domains shown)
VH: B3 VH with L34I, T41S, H52N, K63R, S77N, V79A, Y98S
VL: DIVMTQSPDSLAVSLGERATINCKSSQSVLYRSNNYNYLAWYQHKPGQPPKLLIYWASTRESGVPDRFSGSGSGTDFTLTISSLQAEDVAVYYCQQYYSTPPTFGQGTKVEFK
notes: hybridoma mAb
B5: 25A4 (antibody, V domains shown)
VH: B3 VH with Q3L, K13R, L34I, H52Y, V79A, Y98S
VL: DIVMTQFPDSLAVSLGERATIKCKSSQSVLYSSHNNNYLAWYQQKPGQPPKLLLYWASTRESGVPDRFSGSGSGTEFTLTISSLEAEDVAVYYCQQYYSTPPTFGQGTKVEIK
notes: hybridoma mAb
B6: 4A2 (antibody, V domains shown)
VH: B3 VH with A9T, L34I, M70L, V79A, Y98S
VL: DIVMTQSPDSLAVSLGERATINCKSSQSILHSSNNNNYLAWFQQKPGQPPKLLLYWASTRESGVPDRFSGSGSGTDFTLTISSLQPEDVAVYYCQQYYNTPVTFGPGTKVGIK
notes: hybridoma mAb
B7: 29H8 (antibody, V domains shown)
VH: B3 VH with K12Q, L34I, H52N, K63R, T78A, V79A, Y98S
VL: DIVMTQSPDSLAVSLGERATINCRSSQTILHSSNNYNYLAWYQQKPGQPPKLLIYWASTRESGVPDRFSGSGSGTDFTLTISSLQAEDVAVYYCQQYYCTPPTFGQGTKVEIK
notes: hybridoma mAb
B8: 177D2 (antibody, V domains shown)
VH: QVQLVESGGGVVQPGRSLRLSCAASGFTFSSYGMDWVRQAPGKGLEWVAIIWFDGSNKYYADSVKGRFTISRDNSKNTLYLQMNSLRAEDTAVYYCARAYCGGDCYFPHLHYYGMDVWGQGTTVTVSS
VL: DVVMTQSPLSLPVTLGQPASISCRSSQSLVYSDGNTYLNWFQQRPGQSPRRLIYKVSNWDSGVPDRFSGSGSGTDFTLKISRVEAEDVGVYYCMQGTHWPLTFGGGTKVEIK
notes: hybridoma mAb
B9: 50G9 (antibody, V domains shown)
VH: QVQLVESGGGVVQPGRSLRLSCAASGFIFSSYGMHWVRQAPGKGLEWVAVISQDGIIRYYADSVKGRFTISRDNSKNTLYLQMNSLRAEDTAVYYCARDVKQWLVRTYGMDVWGQGTTVTVSS
VL: SYELTQPPSVSVSPGQTASITCSGDKLGDKYACWYQQKPGQSPVLVIYQDSKRPSGIPERFSGSNSGNTATLTISGTQARDEAEYYCQARNSRRGVFGGGTRLTVL
notes: hybridoma mAb
B10: 154F4 (antibody, V domains shown)
VH: QVQLVESGGGVVQPGRSLRLSCAASGFTFSSYGMHWVRQAPGKGLEWVAVIWYDGSNKYYADSVKGRFTISRDNSKNTLYLQMNSLRAEDTAVYYCAREDSYCSGTSCPYYYYYGMDVWGQGTTVTVSS
VL: SYELTQPPSVSVSPGQTASITCSGDKLGNKYVCWYQQKPGQSPVEVIYKDSKRPSGIPERFSGSNSGNTGTLTISGTQAMDEADYYCQAWDNSTLVFGGGTKLTVL
notes: hybridoma mAb
B11: 52H1 (antibody, V domains shown)
VH: QVQLVESGGGVVQPGRSLRLSCAASGFTFSGYGMHWVRQAPGKGLEWVAVIWYDGSNKYYADSVKGRFTISRDNSKNTLYLQMNSLRAEDTAVYYCARDRVYCSSSSCSYYYYYYGMDVWGQGTTVTVSS
VL: B1 VL with S11F, C22S, A32V, N51R, N91D, N93S, M96V
notes: hybridoma mAb
B12: 159H8 (antibody, V domains shown)
VH: B10 VH with S31T, E99D, D100R, S101V, Y102S, G105S
VL: SYELTQPPSVSVSPGQTASITCSGDKLGDKYVCWYQQKPGQSPVLVIYQDRKRPSGIPERFSGSNSGNTATLTISGTQALDEADYYCQAWGNSSFVVFGGGTKLTVL
notes: hybridoma mAb
B13: 65E9 (antibody, V domains shown)
VH: not shown
VL: B1 VL with D29N, A32D, S33Y, N51R, N91D, N93S, M96V
notes: hybridoma mAb
B14: 27E7 (antibody, V domains shown)
VH: B10 VH with G105S
VL: B10 VL with V32A, K49Q, S55L, G70A, N92S, L95V
notes: hybridoma mAb
B15: 4B3 (antibody, V domains shown)
VH: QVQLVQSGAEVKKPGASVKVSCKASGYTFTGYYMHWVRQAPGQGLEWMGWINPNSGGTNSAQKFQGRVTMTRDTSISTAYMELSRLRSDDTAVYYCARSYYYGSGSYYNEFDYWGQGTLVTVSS
VL: B1 VL with G15R, A18V, S33C, N51R, N91D, M96I
notes: hybridoma mAb
B16: 72B4 (antibody, V domains shown)
VH: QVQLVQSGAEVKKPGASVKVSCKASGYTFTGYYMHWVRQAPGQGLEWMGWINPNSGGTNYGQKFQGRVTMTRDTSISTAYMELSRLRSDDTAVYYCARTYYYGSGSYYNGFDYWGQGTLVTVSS
VL: B1 VL with S33W, K38R, Q49E, N51R, N91D, N93S, M96V
notes: hybridoma mAb
B17: 160B12 (antibody, V domains shown)
VH: B10 VH with E99D, D100R, S101V, Y102S, G105S
VL: B12 VL with Y2D, P7S, R51S
notes: hybridoma mAb
B18: 5E5 (antibody, V domains shown)
VH: QVQLVESGGGVVQPGRSLRLSCAASGFTFSNYVMHWVRQAPGKGLEWVAVIWYDGSNKYYADSVKGRFTISRDNSKNTLYLQMNSLRAEDTAVYYCTREVYSSGWYDYGMDVWGQGTTVTVSS
VL: DIQMTQSPSSLSASVGDRVTITCRASQGIRNDLGWYQQKPGKAPKRLIYAASSLQSGVPSRFSGSGSGTEFTLTISSLQPEDFATYYCLQHYSYPRTFGQGTKVEVK
notes: hybridoma mAb
B19: 7G4 (antibody, V domains shown)
VH: B18 VH with S30N, N84T, T97A, V100K, G104N
VL: B18 VL with K39R, F83S, Q90H, H91Q, V106I
notes: hybridoma mAb
B20: 45B4 (antibody, V domains shown)
VH: B18 VH with N31D, Y32C, T97A, V100R, W105L
VL: B18 VL with I21F, N31D, V106I
notes: hybridoma mAb
B21: 29E2 (antibody, V domains shown)
VH: B18 VH with Y32C, F68I, T97A, V100E
VL: B18 VL with G28A, K39R, T72I, S93N, T97S, V104L, V106I
notes: hybridoma mAb

What follows are binders tested against T1, recombinant, soluble human ASGR-1 (assay: Octet BLI dissociation, pH 5.6 plus calcium).
Description: (§1) The relative dissociation of ASGR-1 from antibodies was measured using a label-free assay on an OctetHTX instrument (Fortebio). Antibody samples were captured on anti-HuFc kinetic biosensors (ForteBio cat #18-5064) at 5 ug/mL in assay buffer (10 mM Tris, 0.1% Triton, 150 mM NaCl, 1 mg/mL BSA, 1 mM CaCl2, pH7.4) for three minutes. A one minute baseline stabilization step was performed in assay buffer. Soluble ASGR-1 (Amgen) at 6 ug/ml in assay buffer was added and association to the antibodies was monitored for two minutes. Subsequent dissociation of ASGR-1 from the antibodies was performed by incubating the ASGR-1-mAb complexes for 10 minutes under each of the following conditions:
(§2) The binding signal at the end of the 2 minute association phase for each dissociation experiment was set to 100% and used to represent the maximal level of ASGR-1 binding. After 1 minute of dissociation, the percentage of ASGR-1 remaining bound was calculated. The lower the percent remaining at a given time point indicates increased levels of dissociation in response to the test conditions (ie. different pH and/or calcium concentrations). The change in the percentage of ASGR-1 remaining bound in response to each test condition relative to the percent remaining in the control conditions (ie. pH 7.4+calcium) was determined. Cut-offs for an antibody to be categorized as being sensitive to a particular condition were set to >10% (ie. if >10% of the ASGR-1 dissociates from the antibody under a particular test condition compared to control condition, it was deemed sensitive to that condition). The analysis was done using the 1 minute dissociation time point (except for mAb 149A1 which was binned based on the 4 minute dissociation time point). Using this analysis, the ASGR-1-binding, receptor-ligand blocking antibodies were separated into groups according to their dissociation profiles in response to pH and calcium (Table 7.3). Antibodies belonging to each category were observed.

% Change Compared to pH 7.4 + Calcium [%]	Binder
12	B1
33	B2
-3	B3
2	B4
-3	B5
-3	B6
-2	B7
2	B8
62	B9
41	B10
-1	B11
10	B12
30	B13
35	B14
33	B15
26	B16
8	B17
18	B18
1	B19
10	B20
25	B21

What follows are binders tested against T1, recombinant, soluble human ASGR-1 (assay: Octet BLI dissociation, pH 5.6 minus calcium).
Description: as §1, §2

% Change Compared to pH 7.4 + Calcium [%]	Binder
51	B1
55	B2
2	B3
2	B4
-1	B5
1	B6
2	B7
10	B8
44	B9
67	B10
10	B11
26	B12
35	B13
46	B14
45	B15
43	B16
22	B17
42	B18
7	B19
23	B20
38	B21

The binders below were run against T1, recombinant, soluble human ASGR-1 (assay: Octet BLI dissociation, pH 7.4 minus calcium).
Description: as §1, §2

% Change Compared to pH 7.4 + Calcium [%]	Binder
38	B1
26	B2
4	B3
3	B4
2	B5
1	B6
2	B7
3	B8
37	B9
10	B10
5	B11
6	B12
22	B13
20	B14
12	B15
32	B16
6	B17
7	B18
2	B19
4	B20
5	B21
